Laboratory results: patent publication US20180105597A1
pEC50: −log10 of the molar value.

What was measured:
human C1q (human) [1] = target: human C1q (human) (UniProt P02745); assay: cell-based or functional assay
human C1q (human) [2] = target: human C1q (human) (UniProt P02745); assay: solid phase C1q binding ELISA, antibody coated in a titration, C1q added
FcγR1 (human) = FcγR1 (human) (UniProt P12314); assay: solid phase binding assay (Meso Scale), receptor coated, antibody titrated
FcγR2a(H) (human) = FcγR2a(H) (human) (UniProt P12318); assay: as above
FcγR3a (V) (human) = FcγR3a (V) (human) (UniProt P08637); assay: as above
Sequence of FcγR3a (V) (human) (P08637 17-208 F176V): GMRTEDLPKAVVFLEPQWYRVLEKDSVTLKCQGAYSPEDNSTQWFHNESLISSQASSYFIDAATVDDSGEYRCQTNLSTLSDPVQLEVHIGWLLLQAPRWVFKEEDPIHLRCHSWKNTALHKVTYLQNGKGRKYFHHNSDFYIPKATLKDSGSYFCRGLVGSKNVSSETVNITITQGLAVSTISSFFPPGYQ

Sequence of human C1q (human) (P02745 23-245 limits assumed, chain 1 of 3): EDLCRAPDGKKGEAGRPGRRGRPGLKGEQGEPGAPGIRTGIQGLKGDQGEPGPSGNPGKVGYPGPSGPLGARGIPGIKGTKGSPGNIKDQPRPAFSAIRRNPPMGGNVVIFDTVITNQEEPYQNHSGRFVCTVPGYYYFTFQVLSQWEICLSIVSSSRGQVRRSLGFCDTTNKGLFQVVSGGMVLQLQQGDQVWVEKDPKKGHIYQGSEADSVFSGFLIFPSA
Sequence of human C1q (human) (P02746 28-253 limits assumed, chain 2 of 3, further chain): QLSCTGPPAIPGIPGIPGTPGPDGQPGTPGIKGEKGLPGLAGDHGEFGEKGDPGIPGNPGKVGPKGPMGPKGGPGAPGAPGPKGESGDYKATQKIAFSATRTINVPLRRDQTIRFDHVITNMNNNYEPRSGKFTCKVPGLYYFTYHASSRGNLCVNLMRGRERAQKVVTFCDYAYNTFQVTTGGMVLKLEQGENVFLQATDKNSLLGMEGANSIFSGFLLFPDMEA
Sequence of human C1q (human) (P02747 29-245 limits assumed, chain 3 of 3, further chain): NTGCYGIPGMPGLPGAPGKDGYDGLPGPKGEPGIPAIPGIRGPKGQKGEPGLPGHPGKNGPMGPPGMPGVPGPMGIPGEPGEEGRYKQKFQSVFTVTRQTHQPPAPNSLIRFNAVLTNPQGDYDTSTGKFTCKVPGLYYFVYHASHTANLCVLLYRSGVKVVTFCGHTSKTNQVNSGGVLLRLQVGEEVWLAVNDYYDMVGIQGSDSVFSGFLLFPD
Sequence of FcγR2a(H) (human) (P12318 36-218): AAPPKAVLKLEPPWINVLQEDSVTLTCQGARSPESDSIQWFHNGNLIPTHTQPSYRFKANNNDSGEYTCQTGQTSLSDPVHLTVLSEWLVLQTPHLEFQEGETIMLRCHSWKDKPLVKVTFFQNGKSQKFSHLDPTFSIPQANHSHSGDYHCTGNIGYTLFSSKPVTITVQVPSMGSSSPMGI
Sequence of FcγR1 (human) (P12314 16-288): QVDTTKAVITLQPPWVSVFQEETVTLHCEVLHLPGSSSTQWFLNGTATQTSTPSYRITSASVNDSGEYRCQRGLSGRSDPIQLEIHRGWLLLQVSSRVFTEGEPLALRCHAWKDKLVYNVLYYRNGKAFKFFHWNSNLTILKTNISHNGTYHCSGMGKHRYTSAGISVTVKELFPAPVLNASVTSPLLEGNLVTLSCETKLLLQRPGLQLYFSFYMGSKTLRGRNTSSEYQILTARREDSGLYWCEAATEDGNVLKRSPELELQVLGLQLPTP

CDC activity EC50 (nM), BxPC3 target cells, human complement (human C1q (human) [1]): > 200 nM
CDC activity EC50 (nM), HEK293 target cells, human complement (human C1q (human) [1]): > 200 nM
CDC activity EC50 (nM), MDA-MB-231 target cells, human complement (human C1q (human) [1]): > 200 nM
CDC activity EC50 (nM), TGFRβII-HEK target cells, human complement (human C1q (human) [1]): > 200 nM
pEC50 (human C1q (human) [2]): 7.72
pEC50 (FcγR1 (human)): 9.24
pEC50 (FcγR2a(H) (human)): 7.32
pEC50 (FcγR3a (V) (human)): 8.24
Substance: LY3022859 (antibody)
